One test deals with T1, NRP-1 peptide (Npep).
T1 construct: also called synthetic peptide Npep
T1 peptide: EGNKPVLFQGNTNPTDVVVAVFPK
In words: ELISA, antibody 10 µg/ml, 2 µg immobilised Npep.

Test [1] concerns the target T2, native human NRP-1 on the cell surface (human, UniProt O14786 22-923).
T2 construct: whole, on cells; endogenous protein; isoform and glycosaminoglycan state on the cells not defined; also called native NRP-1 on MDA-MB-231 cells; native form of NRP-1 protein on the CTCs cell surface
Description: flow cytometry, MDA-MB-231 cells, 10 ug/ml, -heparinase.

Test [2] has as its target T3, recombinant human NRP-1 (3870-N1-025, Bio-Techne) (human, UniProt O14786 22-856).
T3 construct: extracellular domain; bought protein; also called human recombinant NRP-1
In words: ELISA, antibody 10 µg/ml, 1 µg immobilised human NRP-1. (In general: ELISA stands for enzyme-linked immunosorbent assay.)

The target in test [3] is T2, native human NRP-1 on the cell surface. Description: flow cytometry, MDA-MB-231 cells, 40 ug/ml, -chondroitinase. How it is done: (§1) Chondroitinase (C2905, Sigma) was reconstituted in a 0.01% BSA aqueous solution. The MDA-MB-231 cells were treated with chondroitinase (1 U/ml) for 2 hours at 37° C. The cells were detached using cell dissociation solution non-enzymatic (C5914, Sigma). 300,000 cells per condition were washed with 2% FBS in PBS and then incubated with different antibodies of interest or their respective isotype controls at 40 μg/ml for 30 min at 4° C. After wash, an Alexa 488-conjugated anti-human immunoglobulin antibody (20022-1, Biotium) was added at 10 μg/ml for 30 min at 4° C. After a final wash, fluorescence, size and granularity of cells were measured by the LSR Fortessa cytometer (BD Biosciences).

For test [4] the target is unchanged. In words: flow cytometry, MDA-MB-231 cells, 40 ug/ml, with against without chondroitinase. How it is done: as §1
A general note: A flow cytometer gives signals particle by particle.

Test [5] has the same target. In words: flow cytometry, MDA-MB-231 cells, 10 ug/ml, with against without heparinase.
Test [6] shares this target. In words: flow cytometry, MDA-MB-231 cells, 40 ug/ml, +chondroitinase. How it is done:
as §1

Test [7] shares this target. In words: flow cytometry, MDA-MB-231 cells, 10 ug/ml, +heparinase.
Test [8] has as its target DNA-directed RNA polymerase I subunit RPA1 (human) (UniProt O95602). Description: co-IP from A549 WT lysate, LC-MS/MS, peak area against isotype IP.
Test [9] concerns the target DNA-dependent protein kinase catalytic subunit (DNA-PK) (human) (UniProt P78527). The description is as above.
Test [10] addresses DNA topoisomerase 2-beta (human) (UniProt Q02880). The description is as above.
The target in test [11] is Sister chromatid cohesion protein PDS5 homolog B (human) (UniProt Q9NTI5). The test is described as above.
For test [12], the target named is T4, recombinant murine NRP-1 (5994-N1-050, Bio-Techne) (murine, UniProt P97333 22-856).
T4 construct: extracellular domain; bought protein; also called mouse recombinant NRP-1
In words: ELISA, antibody 10 µg/ml, 1 µg immobilised murine NRP-1.

Chain of DNA topoisomerase 2-beta (human) (Q02880 2-1626 limits assumed): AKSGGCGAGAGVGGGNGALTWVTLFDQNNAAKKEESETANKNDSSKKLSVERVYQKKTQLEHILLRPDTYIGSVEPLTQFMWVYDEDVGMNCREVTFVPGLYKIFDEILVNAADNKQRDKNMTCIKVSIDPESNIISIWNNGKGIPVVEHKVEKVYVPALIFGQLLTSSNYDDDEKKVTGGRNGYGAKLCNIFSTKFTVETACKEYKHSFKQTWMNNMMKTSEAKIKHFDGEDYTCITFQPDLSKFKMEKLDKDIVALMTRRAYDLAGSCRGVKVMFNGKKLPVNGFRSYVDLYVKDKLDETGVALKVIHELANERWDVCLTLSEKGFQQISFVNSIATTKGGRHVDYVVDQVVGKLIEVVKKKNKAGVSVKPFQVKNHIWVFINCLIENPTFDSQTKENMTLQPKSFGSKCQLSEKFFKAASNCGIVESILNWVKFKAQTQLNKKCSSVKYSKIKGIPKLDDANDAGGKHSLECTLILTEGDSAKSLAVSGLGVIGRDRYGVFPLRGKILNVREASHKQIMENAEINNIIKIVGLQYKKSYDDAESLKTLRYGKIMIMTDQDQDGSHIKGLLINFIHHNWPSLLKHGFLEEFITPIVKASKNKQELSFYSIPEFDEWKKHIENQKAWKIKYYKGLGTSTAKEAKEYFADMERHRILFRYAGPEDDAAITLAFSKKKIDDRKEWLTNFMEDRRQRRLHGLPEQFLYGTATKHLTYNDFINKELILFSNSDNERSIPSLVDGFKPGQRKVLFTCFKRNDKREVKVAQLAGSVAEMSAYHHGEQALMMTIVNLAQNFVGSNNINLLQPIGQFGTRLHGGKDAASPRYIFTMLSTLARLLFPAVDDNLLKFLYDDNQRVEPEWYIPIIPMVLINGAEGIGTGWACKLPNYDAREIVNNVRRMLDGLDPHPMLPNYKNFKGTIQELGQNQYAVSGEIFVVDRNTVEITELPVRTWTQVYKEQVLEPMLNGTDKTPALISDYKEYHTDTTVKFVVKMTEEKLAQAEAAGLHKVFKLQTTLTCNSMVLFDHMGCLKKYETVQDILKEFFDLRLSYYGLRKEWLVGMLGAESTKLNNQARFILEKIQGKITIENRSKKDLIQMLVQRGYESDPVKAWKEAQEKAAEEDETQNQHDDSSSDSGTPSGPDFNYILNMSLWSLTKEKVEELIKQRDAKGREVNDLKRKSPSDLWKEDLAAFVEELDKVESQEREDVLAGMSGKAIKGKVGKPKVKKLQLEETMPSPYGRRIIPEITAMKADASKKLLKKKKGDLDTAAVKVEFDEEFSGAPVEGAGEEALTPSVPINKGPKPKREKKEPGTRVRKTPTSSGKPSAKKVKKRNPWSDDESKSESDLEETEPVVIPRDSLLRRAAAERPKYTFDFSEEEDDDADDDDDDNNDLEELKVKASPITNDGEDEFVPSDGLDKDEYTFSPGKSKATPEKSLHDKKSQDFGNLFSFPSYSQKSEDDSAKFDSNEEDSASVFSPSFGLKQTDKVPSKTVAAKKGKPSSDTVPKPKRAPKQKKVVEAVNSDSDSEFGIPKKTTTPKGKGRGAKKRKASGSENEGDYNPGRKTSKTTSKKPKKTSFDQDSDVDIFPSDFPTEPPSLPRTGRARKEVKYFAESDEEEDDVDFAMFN
Chain of Sister chromatid cohesion protein PDS5 homolog B (human) (Q9NTI5 whole entry): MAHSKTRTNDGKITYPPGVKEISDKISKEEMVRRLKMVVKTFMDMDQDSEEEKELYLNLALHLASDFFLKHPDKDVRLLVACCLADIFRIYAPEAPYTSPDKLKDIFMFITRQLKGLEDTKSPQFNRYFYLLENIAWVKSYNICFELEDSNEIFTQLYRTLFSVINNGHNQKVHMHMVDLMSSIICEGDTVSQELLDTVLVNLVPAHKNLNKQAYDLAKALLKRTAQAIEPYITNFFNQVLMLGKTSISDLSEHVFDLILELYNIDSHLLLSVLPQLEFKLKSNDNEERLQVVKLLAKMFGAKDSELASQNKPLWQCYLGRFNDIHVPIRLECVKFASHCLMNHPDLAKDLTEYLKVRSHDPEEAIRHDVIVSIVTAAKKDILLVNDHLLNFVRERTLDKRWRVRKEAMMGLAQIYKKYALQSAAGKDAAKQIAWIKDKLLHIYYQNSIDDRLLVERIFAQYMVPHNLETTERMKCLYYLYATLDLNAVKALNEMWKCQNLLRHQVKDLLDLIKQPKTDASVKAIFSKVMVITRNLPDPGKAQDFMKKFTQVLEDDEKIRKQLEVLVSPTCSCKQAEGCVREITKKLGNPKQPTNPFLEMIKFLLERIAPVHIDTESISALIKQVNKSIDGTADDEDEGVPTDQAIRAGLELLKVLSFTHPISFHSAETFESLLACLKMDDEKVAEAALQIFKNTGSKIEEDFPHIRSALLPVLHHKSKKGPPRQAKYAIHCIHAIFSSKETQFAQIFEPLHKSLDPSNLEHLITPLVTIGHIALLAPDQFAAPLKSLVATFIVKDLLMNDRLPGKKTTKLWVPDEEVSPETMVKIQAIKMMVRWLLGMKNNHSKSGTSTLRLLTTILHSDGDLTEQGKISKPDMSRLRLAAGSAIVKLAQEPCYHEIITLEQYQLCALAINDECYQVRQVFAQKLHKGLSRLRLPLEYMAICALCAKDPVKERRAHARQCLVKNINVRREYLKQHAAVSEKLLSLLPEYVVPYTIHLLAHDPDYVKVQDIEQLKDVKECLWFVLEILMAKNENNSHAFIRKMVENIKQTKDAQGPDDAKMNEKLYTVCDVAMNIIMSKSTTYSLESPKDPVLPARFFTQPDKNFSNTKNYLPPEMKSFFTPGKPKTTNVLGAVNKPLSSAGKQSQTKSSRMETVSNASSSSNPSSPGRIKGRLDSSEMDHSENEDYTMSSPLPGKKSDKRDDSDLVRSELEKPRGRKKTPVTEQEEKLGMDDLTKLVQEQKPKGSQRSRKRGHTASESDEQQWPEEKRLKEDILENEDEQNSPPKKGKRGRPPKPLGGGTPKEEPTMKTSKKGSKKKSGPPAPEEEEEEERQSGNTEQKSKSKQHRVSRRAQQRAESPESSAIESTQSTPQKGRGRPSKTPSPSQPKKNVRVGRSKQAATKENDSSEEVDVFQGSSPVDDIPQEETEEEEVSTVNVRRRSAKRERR
Chain of DNA-directed RNA polymerase I subunit RPA1 (human) (O95602 whole entry): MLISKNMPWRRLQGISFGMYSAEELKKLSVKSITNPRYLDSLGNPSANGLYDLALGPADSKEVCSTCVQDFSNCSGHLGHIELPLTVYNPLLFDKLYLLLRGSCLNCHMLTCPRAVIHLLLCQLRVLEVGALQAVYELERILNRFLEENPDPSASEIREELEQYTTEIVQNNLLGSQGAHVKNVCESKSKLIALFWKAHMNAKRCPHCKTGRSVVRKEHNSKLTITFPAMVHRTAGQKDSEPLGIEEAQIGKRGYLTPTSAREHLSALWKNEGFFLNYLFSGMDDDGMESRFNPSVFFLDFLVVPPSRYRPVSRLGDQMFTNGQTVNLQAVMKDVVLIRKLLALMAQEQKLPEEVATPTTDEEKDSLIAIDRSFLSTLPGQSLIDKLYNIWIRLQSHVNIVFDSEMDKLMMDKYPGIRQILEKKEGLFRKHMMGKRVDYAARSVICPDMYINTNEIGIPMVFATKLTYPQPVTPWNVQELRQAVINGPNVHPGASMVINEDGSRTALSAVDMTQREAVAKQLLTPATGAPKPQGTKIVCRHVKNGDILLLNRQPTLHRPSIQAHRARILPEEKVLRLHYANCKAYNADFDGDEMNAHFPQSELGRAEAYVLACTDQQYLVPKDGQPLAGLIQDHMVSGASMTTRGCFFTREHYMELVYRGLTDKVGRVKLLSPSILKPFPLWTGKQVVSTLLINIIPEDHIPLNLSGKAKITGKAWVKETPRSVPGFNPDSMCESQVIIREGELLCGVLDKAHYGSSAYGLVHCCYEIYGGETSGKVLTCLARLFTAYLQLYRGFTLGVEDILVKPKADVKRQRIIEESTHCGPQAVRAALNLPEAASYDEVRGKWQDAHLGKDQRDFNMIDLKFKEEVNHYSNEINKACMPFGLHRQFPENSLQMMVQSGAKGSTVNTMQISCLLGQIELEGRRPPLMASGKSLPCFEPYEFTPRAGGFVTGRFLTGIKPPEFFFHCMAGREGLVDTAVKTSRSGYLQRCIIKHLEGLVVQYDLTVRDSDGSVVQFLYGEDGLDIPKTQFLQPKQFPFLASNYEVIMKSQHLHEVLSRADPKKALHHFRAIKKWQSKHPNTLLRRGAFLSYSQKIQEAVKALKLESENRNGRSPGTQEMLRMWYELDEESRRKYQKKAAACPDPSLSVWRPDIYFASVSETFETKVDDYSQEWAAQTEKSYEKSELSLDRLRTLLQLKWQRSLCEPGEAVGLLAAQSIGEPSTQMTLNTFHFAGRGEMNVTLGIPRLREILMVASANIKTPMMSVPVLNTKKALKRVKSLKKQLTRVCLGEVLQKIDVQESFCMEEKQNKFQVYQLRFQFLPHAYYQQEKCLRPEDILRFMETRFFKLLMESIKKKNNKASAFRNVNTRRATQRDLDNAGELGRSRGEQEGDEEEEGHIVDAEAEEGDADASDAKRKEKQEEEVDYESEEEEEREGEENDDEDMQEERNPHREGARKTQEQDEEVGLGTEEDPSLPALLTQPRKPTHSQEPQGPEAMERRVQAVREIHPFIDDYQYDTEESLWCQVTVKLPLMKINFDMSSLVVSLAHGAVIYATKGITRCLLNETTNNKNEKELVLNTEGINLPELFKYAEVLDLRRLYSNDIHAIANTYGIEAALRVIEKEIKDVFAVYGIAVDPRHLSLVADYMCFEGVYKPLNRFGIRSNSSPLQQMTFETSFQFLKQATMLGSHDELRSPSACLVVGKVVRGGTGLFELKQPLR

B1: variant 4 of a-NRP1_LEP n° 1 (antibody, V domains shown)
VH: EVQLVESGGGLVQPGGSLRLSCAASGFTFSSFGMHWVRQAPGKGLEWVAYISSGSSTIHYADSVKGRFTISRDNAKNSLYLQMNSLRAEDTAMYYCARRHYGSSRYWYFDVWGQGTTVTVSS
VL: EIVLTQSPATLSLSPGERATLSCRASQSVKSYLAWYQQKPGQAPRLLIYYASSRATGIPARFSGSGSGTDFTLTISSLEPEDFAVYYCQQYSESPYTFGQGTKLEIK
notes: humanized variant of 21B10; isotype control hIgG4; also called variant 4 a-NRP1_LEP; variant n°4 a-NRP1_LEP
Turning to B1, the results for the Absorbance (with NRP-1 peptide (Npep); in test [2]; in test [12]) were 0.855, 0.953 and 0.986, respectively. For the same molecule, the percentage of binding turned out to be 12.4% in [1], 93.2% in test [3], 86.4% in test [6] and 10.1% in test [7]. In addition, the “delta (% of control)” value is -6.8% in [4] and -2.3% in [5]. Moreover, the Ratio Area V4/IgG4 was 3210 in test [8], 6.06 in [9], 369 in [10] and 358 in test [11].
